In US20250197510A1 (published 2025):

Molecular target: T1, FLT3 on Nalm16 cells (human, UniProt P36888 27-993)
T1 construct: whole, on cells; Also used for FLT3 on primary leukemic cells of patients in the functional rows; also called NALM16 (FLT3+); FLT3 on leukemic cells
T1 sequence (looked up): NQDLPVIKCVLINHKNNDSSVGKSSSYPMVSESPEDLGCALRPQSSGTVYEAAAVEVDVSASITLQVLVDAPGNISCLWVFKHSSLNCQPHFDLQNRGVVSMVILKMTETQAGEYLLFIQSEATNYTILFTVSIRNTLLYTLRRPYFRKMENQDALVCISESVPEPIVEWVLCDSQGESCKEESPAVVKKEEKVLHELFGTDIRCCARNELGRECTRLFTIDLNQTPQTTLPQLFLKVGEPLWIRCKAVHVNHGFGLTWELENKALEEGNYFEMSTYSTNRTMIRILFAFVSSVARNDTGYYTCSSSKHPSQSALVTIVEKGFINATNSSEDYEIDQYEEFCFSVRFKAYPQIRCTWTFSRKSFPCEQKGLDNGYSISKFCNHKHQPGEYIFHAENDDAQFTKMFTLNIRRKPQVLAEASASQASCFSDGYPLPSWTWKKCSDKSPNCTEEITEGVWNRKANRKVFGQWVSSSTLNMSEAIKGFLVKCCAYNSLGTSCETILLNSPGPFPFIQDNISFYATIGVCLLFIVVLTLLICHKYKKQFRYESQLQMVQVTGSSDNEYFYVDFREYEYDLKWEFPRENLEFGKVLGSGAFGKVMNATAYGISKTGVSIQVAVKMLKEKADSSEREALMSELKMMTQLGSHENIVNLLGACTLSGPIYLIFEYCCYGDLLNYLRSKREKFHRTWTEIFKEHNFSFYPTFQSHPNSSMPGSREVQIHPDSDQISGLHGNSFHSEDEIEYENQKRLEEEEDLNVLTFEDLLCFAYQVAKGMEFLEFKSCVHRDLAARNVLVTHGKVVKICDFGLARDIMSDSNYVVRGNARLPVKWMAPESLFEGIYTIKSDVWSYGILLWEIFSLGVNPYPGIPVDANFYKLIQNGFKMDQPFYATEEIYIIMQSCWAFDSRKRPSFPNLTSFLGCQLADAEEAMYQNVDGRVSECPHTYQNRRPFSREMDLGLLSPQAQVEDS
Assay: flow cytometry on NALM16 (FLT3+) cells, PE-conjugated anti human Fcγ secondary antibody
Method: In addition, antibody binding affinity was also tested using binding of the antibody to its target(s) as expressed on cells. Analyzed is the binding of CC-2 variants to Nalm16 cells expressing FLT3 (FIG. 4) or Jurkat cells expressing CD3 (FIG. 6). Variants V1 to V9 (with V6 being V6-V6) were produced after transient transfection of CHO cells using the insert sequences listed above. The antibodies were purified by protein A affinity-and size exclusion-chromatography. […] To measure antibody binding to FLT3 and CD3 NALM16 (FLT3+) and Jurkat (CD3+) cells were incubated with the respective variants for 30 min, washed, stained with a goat anti human Fcγ-specific and PE-conjugated secondary antibody (Jackson Immuno Research), washed again and analyzed by flow cytometry (FACSCalibur, BD Biosciences).

B1: V6-V6 (bispecific antibody, human IgG1, kappa)
heavy: QVQLQQPGAELVKPGASLKLSCKSSGYTFTSYWMHWVRQRPGHGLEWIGEIDPSDSYKDYNQKFKDKATLTVDRSSNTAYMHLSSLTSDDSAVYYCARAITTTPFDFWGQGTTLTVSSASTKGPSVFPLAPSSKSTSGGTAALGCLVKDYFPEPVTVSWNSGALTSGVHTFPAVLQSSGLYSLSSVVTVPSSSLGTQTYICNVNHKPSNTKVDKKVEPKSCDKTHTCPPCPAPPVAGPSVFLFPPKPKDTLMISRTPEVTCVVVGVSHEDPEVKFNWYVDGVEVHNAKTKPREEQYNSTYRVVSVLTVLHQDWLNGKEYKCKVSNKQLPSPIEKTISKAKGQPREPQVYTLPPSRDELTKNQVSLTCLVKGFYPSDIAVEWESNGQPENNYKTTPPVLDSDGSFFLYSKLTVDKSRWQQGNVFSCSVMHEALHNHYTQKSLSLSPGKSGDIQMTQSPSSLSASVGDRVTITCRASQDIRNYLNWYQQKPGKAPKLLIYYTSRLESGVPSRFSGSGSGTDYTLTISSLQPEDFATYYCQQGNTLPWTFGQGTKVEIKGGGGSGGGGSGGGGSEVQLVESGGGLVQPGGSLRLSCAASGYSFTGYTMNWVRQAPGKGLEWVALINPYKGVSTYNQKFKDRFTISVDKSKNTAYLQMNSLRAEDTAVYYCARSGYYGDSDWYFDVWGQGTLVTVSS
light: DIVLTQSPATLSVTPGDSVSLSCRASQSISNNLHWYQQKSHESPRLLIKYASQSISGIPSRFSGSGSGTDFTLSINSVETEDFGVYFCQQSNTWPYTFGGGTKLEIKRTVAAPSVFIFPPSDEQLKSGTASVVCLLNNFYPREAKVQWKVDNALQSGNSQESVTEQDSKDSTYSLSSTLTLSKADYEKHKVYACEVTHQGLSSPVTKSFNRGEC
notes: also called CC-2; FLT3 (4G8) x CD3 (humanized hUCHT1) bispecific IgGsc
EC50: ~1 nM
